The text below walks through data of paper PMC3690555 (Biochemistry, 2009).

Series [1] deals with D3A-NiSOD (Streptomyces coelicolor). Nature of the series: crystal structure.
Series [2] shares this target. Nature of the series: SEC + native MS.
For series [3], the target named is Y9F-NiSOD (Streptomyces coelicolor). In words: crystal structure.
Series [4] shares this target. In words: SEC + native MS.
Series [5] has as its target Y9FY62F-NiSOD (Streptomyces coelicolor). Nature of the series: SEC + native MS.
Series [6] deals with Y62F-NiSOD (Streptomyces coelicolor). Nature of the series: SEC + native MS.
Series [7] deals with the molecule itself. Nature of the series: SEC + native MS.

With D3A-NiSOD (enzyme), the stoichiometry N in series [1] and in series [2] was 6 each time.
As to Y9F-NiSOD (enzyme), the stoichiometry N in series [3] and in series [4] was 6 each time.
Turning to Y9FY62F-NiSOD (enzyme), the stoichiometry N (usually the number of molecules, sites or subunits per partner or assembly) in series [5] is 6.
On to Y62F-NiSOD (enzyme), for which the stoichiometry N in series [6] was 6.

B1: WT-NiSOD, recombinant nickel-dependent superoxide dismutase from Streptomyces coelicolor (enzyme, UniProt P80735 15-131, looked up)
chain: HCDLPCGVYDPAQARIEAESVKAVQEKMAGNDDPHFQTRATVIKEQRAELAKHHVSVLWSDYFKPPHFEKYPELHQLVNDTLKALSAAKGSKDPATGQKALDYIAQIDKIFWETKKA
In the case of B1, the “stoichiometry N” value in series [7] was 6.
